Results published in patent US20240200044.

Tests used:
[1] = tested on: ATM-L TALEN L3-1 (in cells) A252T,Q505K,Q745P (full TALE construct numbering) (synthetic construct); test: cell_activity; conditions: U2OS
[2] = tested on: ATM-L TALEN L3-2 (in cells) A252T,L338S,Q505K,Q745P (full TALE construct numbering) (synthetic construct); test: cell_activity; conditions: U2OS
[3] = tested on: canonical ATM-R TALEN (synthetic construct); test: cleavage_in_vitro; conditions: 12 nM, 90 min, paired with canonical ATM-L
[4] = tested on: ATM-L TALEN L1-2 (A252T) A252T (full TALE construct numbering) (synthetic construct); test: cleavage_in_vitro; conditions: canonical 6.3% in same experiment

Sequence | activity [1] | activity [2] | other results
TGAATTGAGAGAAGCATT (double strand) [OffA11 left half-site] |  |  | activity ([1]; control 0.001%, not significant): 0.002 % indels; activity ([2]; not significant, HEK293 <0.001%): 0.002 % indels
TTTATTTTACTGTCTTTA (double strand) [ATM right half-site on-target (sense strand)] |  |  | activity [3]: 31.5 % cleavage
TGAATTGGGATGCTGTTT (double strand) [ATM left half-site on-target] | 7.04 % indels |  | activity ([2]; HEK293 23.26%): 7.97 % indels
TGAATAGGAAATATATTT (double strand) [OffA1 left half-site] | < 0.001 % indels | 0.002 % indels | 
TAGATTGAAATGCTGTTT (double strand) [OffA23 left half-site] | < 0.001 % indels | < 0.001 % indels | 
GGAAATGGGATACTGAGT (double strand) [OffA17 left half-site] | < 0.001 % indels |  | activity ([2]; HEK293 0.025%): < 0.001 % indels; activity [4]: 0.3 % cleavage
